The target in assay [1] is human KLRB1 ECD (human). Kind of assay: SPR. (In SPR one partner is held on a chip, and binding of the other changes the refractive index at the surface.)
Assay [2] concerns the target human KLRB1 on CHO-K1 (human). Kind of assay: competition, CLEC2D, FACS.
The target of assay [3] is T1, cynomolgus KLRB1 ECD (cynomolgus).
T1 chain: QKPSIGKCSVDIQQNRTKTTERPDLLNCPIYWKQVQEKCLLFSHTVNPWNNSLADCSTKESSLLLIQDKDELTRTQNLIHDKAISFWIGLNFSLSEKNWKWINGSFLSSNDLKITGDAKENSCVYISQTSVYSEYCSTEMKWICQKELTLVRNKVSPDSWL
In words: ELISA. (ELISA stands for enzyme-linked immunosorbent assay.)

Assay [4] has as its target human KLRB1 on CHO-K1 (human). In words: FACS.
The target of assay [5] is human KLRB1 ECD (human). Kind of assay: ELISA.
The target in assay [6] is T2, cynomolgus KLRB1 on CHO-K1 (cynomolgus).
T2 chain: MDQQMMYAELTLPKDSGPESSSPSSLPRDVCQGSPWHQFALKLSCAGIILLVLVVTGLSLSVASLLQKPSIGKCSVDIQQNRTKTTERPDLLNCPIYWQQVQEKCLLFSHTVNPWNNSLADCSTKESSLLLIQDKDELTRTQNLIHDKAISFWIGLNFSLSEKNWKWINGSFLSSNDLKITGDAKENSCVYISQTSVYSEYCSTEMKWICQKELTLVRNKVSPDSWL
In words: FACS. Background: A flow cytometer gives signals particle by particle.

Numbering of substitutions follows the chain as printed.

Sequence of human KLRB1 on CHO-K1 (human) (chain, as listed by the source): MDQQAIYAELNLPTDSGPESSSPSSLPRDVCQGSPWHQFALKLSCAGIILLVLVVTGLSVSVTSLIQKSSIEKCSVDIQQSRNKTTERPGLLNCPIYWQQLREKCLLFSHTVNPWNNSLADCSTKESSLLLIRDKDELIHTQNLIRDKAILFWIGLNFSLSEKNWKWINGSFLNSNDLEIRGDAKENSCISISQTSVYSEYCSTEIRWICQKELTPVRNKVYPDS
Sequence of human KLRB1 ECD (human) (chain, as listed by the source): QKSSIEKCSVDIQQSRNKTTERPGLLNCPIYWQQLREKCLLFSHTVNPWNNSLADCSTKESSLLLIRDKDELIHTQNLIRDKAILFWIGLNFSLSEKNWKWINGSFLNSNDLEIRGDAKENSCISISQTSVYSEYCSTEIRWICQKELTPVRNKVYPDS

B1: Hu22F10G3-1.4 (antibody, V domains shown)
VH: QVQLQESGPGLVKPSQTLSLTCTVSGYSLTSDFAWNWIRQHPGKGLEWIGDIRYSGSTDYNPSLKGRVTISVDTSKNQFSLKLSSVTAADTAVYYCARGGYYGYDEGYPMDYWGQGTLVTVSS
VL: DIVMTQSPDSLAVSLGERATISCRASESVDVYGNSFMHWYQQKPGQPPKLLIYLAFNLKSGVPARFSGSGSGTDFTLTISSLQAEDVATYYCQQNNEDPFTFGQGTKLEIK
By Kd is commonly meant the free concentration of one partner at which half of the binding sites on the other are occupied at equilibrium, for simple one-to-one binding. Read a low Kd as a tighter complex. In assay [1], B1 gave an equilibrium dissociation constant (Kd) of 0.153 nM.

B2: Hu22F10G3-2.4 (antibody, V domains shown)
VH: B1 VH with I49M, V72R
VL: B1 VL
In the case of B2, in assay [1], binding was characterised by a dissociation constant (Kd) of 0.116 nM.

B3: Hu22F10G3-4.3 (antibody, V domains shown)
VH: B1 VH with H41F, I49M, V68S, V72R, S80F
VL: B1 VL with A64D, T89V
The molecule B3 yielded a Kd in assay [1] of 0.0972 nM.

B4: Hu22F10G3-4.1 (antibody, V domains shown)
VH: B1 VH with H41F, I49M, V68S, V72R, S80F
VL: B1 VL with S22N, A64D, T89V
Take B4: in assay [1], binding was put at a Kd of 0.105 nM.

B5: Hu22F10G3-4.4 (antibody, V domains shown)
VH: B1 VH with H41F, I49M, V68S, V72R, S80F
VL: B1 VL
Take B5: binding in assay [1] was characterised by a dissociation constant (Kd) of 0.121 nM.

B6: Hu22F10G3-3.2 (antibody, V domains shown)
VH: B1 VH with I49M, V68S, V72R
VL: B1 VL with S22N, T89V
The molecule B6 showed a Kd in assay [1] of 0.189 nM.

B7: Hu22F10G3-2.2 (antibody, V domains shown)
VH: B1 VH with I49M, V72R
VL: B1 VL with S22N, T89V
Take B7: in assay [1], the Kd came to 0.135 nM.

B8: Hu22F10G3-1.2 (antibody, V domains shown)
VH: B1 VH
VL: B1 VL with S22N, T89V
As to B8, the affinity in assay [1], expressed as Kd, was 0.152 nM.

B9: Hu22F10G3-2.1 (antibody, V domains shown)
VH: B1 VH with I49M, V72R
VL: B1 VL with S22N, A64D, T89V
Turning to B9, the Kd in assay [1] amounted to 0.104 nM.

B10: Hu22F10G3-3.3 (antibody, V domains shown)
VH: B1 VH with I49M, V68S, V72R
VL: B1 VL with A64D, T89V
As for B10, the dissociation constant Kd in assay [1] worked out at 0.18 nM.

B11: Hu22F10G3-4.2 (antibody, V domains shown)
VH: B1 VH with H41F, I49M, V68S, V72R, S80F
VL: B1 VL with S22N, T89V
Molecule B11 had a Kd in assay [1] of 0.13 nM.

B12: Hu22F10G3-3.1 (antibody, V domains shown)
VH: B1 VH with I49M, V68S, V72R
VL: B1 VL with S22N, A64D, T89V
As to B12, in assay [1], the Kd turned out to be 0.122 nM.

B13: Hu22F10G3-1.3 (antibody, V domains shown)
VH: B1 VH
VL: B1 VL with A64D, T89V
In assay [1], B13 yielded a Kd of 0.177 nM.

B14: Hu47A5H2-14 (antibody, V domains shown)
VH: QVQLVQSGAEVKKPGASVKVSCKGSGYSFTGYWMHWVRQAPGQGLEWMGMIHPSDSETRLNQKFKDKVTMTVDKSTSTVYMELSSLRSEDTAVYYCASEGLRRGSFAYWGQGTLVTVSS
VL: DIVLTQSPDSLAVSLGERATINCRASESVDNYGMTFMSWYQQKPGQPPKLLIYAASNQGSGVPDRFSGSGSGTDFTLTISSLQAEDVAVYYCQQSKEVPYTFGQGTKLEIK
As usually defined, the IC50 is the concentration needed to halve the response being measured. A low value points to higher potency. What is called EC50 is the concentration that produces a half-maximal response. A higher EC50 goes with lower potency in that assay. B14 yielded an IC50 in assay [2] of 2.54 nM. Moreover, the EC50 in assay [3] is 0.0414 nM; in assay [4], 2.12 nM; in assay [5], 0.0309 nM; in assay [6], approximately 1.82 nM.

B15: Hu47A5H2-03 (antibody, V domains shown)
VH: B14 VH with G24A, K67R, V72R, K74T
VL: B14 VL with Y40F
Consider B15, for which the IC50 in assay [2] came to 2.31 nM. For the same molecule, the 50% effective concentration (EC50) worked out at 0.0137 nM in assay [3], 1.73 nM in assay [4], 0.0205 nM in assay [5] and 11.6 nM in assay [6].

B16: Hu47A5H2-10 (antibody, V domains shown)
VH: B14 VH with G24A, K67R
VL: B14 VL
For the molecule B16, the IC50 in assay [2] was found to be 1.96 nM. Also, the EC50 in assay [3] is 0.0174 nM; in assay [4], 0.88 nM; in assay [5] it was 0.0272 nM; in assay [6], approximately 1.65 nM.

B17: Hu47A5H2-08 (antibody, V domains shown)
VH: B14 VH with G24A, K67R, K74T
VL: EIVLTQSPATLSLSPGERATLSCRASESVDNYGMTFMSWYQQKPGQAPRLLIYAASNQGSGIPARFSGSGSGTDFTLTISSLEPEDFAVYYCQQSKEVPYTFGQGTKLEIK
As to B17, in assay [2], the IC50 came out at 2.42 nM. For the same molecule, the 50% effective concentration (EC50) turned out to be 0.0306 nM in assay [3], 1.68 nM in assay [4], 0.0174 nM in assay [5] and 2.55 nM in assay [6].

B18: Hu47A5H2-06 (antibody, V domains shown)
VH: B14 VH with G24A, K67R, K74T
VL: B14 VL
In assay [2], B18 returned an IC50 of 2.66 nM. Besides, the EC50 turned out to be 0.0562 nM in assay [3], 1.67 nM in assay [4], 0.0204 nM in assay [5] and 6.62 nM in assay [6].

B19: Hu47A5H2-15 (antibody, V domains shown)
VH: B14 VH
VL: B14 VL with Y40F
In turn, B19 yielded an IC50 in assay [2] of 2.47 nM. Besides, the concentration giving a half-maximal response (EC50) in assay [3] was 0.00973 nM; in assay [4], 1.98 nM; in assay [5], 0.0241 nM; in assay [6], approximately 1.74 nM.

B20: Hu47A5H2-13 (antibody, V domains shown)
VH: B14 VH
VL: B14 VL with L4M
With B20, the half-inhibitory concentration (IC50) in assay [2] worked out at 2.31 nM. Further, the EC50 in assay [3] is 0.0984 nM; in assay [4], 1.79 nM; in assay [5], 0.0266 nM; in assay [6], approximately 1.81 nM.

B21: Hu47A5H2-12 (antibody, V domains shown)
VH: B14 VH with G24A, K67R
VL: B17 VL
B21: the IC50 in assay [2] worked out at 2.17 nM. Besides, the EC50 is 0.02 nM in assay [3], 5.16 nM in assay [4], 0.0263 nM in assay [5] and approximately 1.69 nM in assay [6].

B22: Hu47A5H2-04 (antibody, V domains shown)
VH: B14 VH with G24A, K67R, V72R, K74T
VL: B17 VL
B22 showed a 50% inhibitory concentration (IC50) in assay [2] of 2.53 nM. Also, the EC50 was 0.0441 nM in assay [3], 1.67 nM in assay [4], 0.0212 nM in assay [5] and 4.71 nM in assay [6].

B23: Hu47A5H2-01 (antibody, V domains shown)
VH: B14 VH with G24A, K67R, V72R, K74T
VL: B14 VL with L4M
On to B23, for which, in assay [2], the half-maximal inhibitory concentration (IC50) amounted to 1.59 nM. The concentration for a half-maximal effect (EC50) in assay [3] turned out to be 0.116 nM; in assay [4], 2.65 nM; in assay [5], 0.0195 nM; in assay [6], 7.76 nM.

B24: Hu47A5H2-02 (antibody, V domains shown)
VH: B14 VH with G24A, K67R, V72R, K74T
VL: B14 VL
B24: in assay [2], the IC50 worked out at 2.05 nM. Also, the half-maximal effective concentration (EC50) in assay [3] turned out to be 0.0372 nM; in assay [4] it was 2.08 nM; in assay [5], 0.0198 nM; in assay [6], 7.51 nM.

B25: Hu47A5H2-09 (antibody, V domains shown)
VH: B14 VH with G24A, K67R
VL: B14 VL with L4M
Molecule B25 displayed a concentration for half-maximal inhibition (IC50) in assay [2] of 2.22 nM. Further, the concentration giving a half-maximal response (EC50) in assay [3] was 0.0283 nM; in assay [4], 1.96 nM; in assay [5], 0.0273 nM; in assay [6], approximately 1.86 nM.

B26: Hu47A5H2-05 (antibody, V domains shown)
VH: B14 VH with G24A, K67R, K74T
VL: B14 VL with L4M
As for B26, the half-inhibitory concentration (IC50) in assay [2] was 2.16 nM. Moreover, the EC50 was 0.0824 nM in assay [3], 1.49 nM in assay [4], 0.0172 nM in assay [5] and 5.22 nM in assay [6].

B27: Hu47A5H2-16 (antibody, V domains shown)
VH: B14 VH
VL: B17 VL
With B27, the 50% inhibitory concentration (IC50) in assay [2] worked out at 2.41 nM. For the same molecule, the concentration giving a half-maximal response (EC50) in assay [3] was 0.0429 nM; in assay [4], 2.11 nM; in assay [5] it was 0.0287 nM; in assay [6] it was approximately 1.8 nM.

Source of the values: patent publication US20260356955 (published 2026).
